Test results taken from publication PMC5309953, “IRAV (FLJ11286), an Interferon-Stimulated Gene with Antiviral Activity against Dengue Virus, Interacts with MOV10”.

Target: IRAV (FLJ11286) (UniProt Q9NUL5 1-269)
Assay: fluorescence polarization; FP: oligos in 100 mM KCl, 20 mM HEPES pH 7.4 (heated to 85 C, slow cooled); protein purified in 200 mM NaCl, 20 mM HEPES pH 7.4; assay temperature not stated
Details: protein: recombinant; tags: N-terminal His-MBP; label: 3'-FAM; single strand

IRAV (FLJ11286), sequence (Q9NUL5 1-269): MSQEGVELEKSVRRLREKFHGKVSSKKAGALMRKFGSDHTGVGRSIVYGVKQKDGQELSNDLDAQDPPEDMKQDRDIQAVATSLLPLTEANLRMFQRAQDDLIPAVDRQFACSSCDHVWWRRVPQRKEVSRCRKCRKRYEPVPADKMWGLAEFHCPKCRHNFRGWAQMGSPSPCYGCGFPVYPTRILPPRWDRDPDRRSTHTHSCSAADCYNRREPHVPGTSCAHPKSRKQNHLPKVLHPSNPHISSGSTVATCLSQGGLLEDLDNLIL

Binder	binding result
AGTTGTTAGTCTACGTGGAC (ssDNA) [ssDNA 20-mer]	binds
AGUUGUUAGUCUACGUGGAC (ssRNA) [ssRNA 20-mer]	binds
